{"source": "paper PMC5257249", "origin": "cited, not measured here", "key": {"[1]": {"biological_target": "MMOH (Methylococcus capsulatus) (UniProt P22869)", "sequence (P22869 whole entry, chain 1 of 3)": "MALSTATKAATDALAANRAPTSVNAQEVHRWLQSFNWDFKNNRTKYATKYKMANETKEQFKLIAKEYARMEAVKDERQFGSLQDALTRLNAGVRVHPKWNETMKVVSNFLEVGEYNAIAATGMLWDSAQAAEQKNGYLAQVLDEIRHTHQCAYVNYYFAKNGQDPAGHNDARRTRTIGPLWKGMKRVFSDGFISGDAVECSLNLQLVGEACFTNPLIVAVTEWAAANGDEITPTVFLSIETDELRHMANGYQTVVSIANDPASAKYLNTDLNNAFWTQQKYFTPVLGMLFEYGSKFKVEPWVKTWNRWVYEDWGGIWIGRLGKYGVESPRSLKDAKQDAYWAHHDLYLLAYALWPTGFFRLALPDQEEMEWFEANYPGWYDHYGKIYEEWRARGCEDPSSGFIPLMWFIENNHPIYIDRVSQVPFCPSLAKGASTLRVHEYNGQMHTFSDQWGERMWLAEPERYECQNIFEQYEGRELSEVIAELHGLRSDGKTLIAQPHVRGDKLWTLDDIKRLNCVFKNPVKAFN", "sequence (P18798 2-389, chain 2 of 3, further chain)": "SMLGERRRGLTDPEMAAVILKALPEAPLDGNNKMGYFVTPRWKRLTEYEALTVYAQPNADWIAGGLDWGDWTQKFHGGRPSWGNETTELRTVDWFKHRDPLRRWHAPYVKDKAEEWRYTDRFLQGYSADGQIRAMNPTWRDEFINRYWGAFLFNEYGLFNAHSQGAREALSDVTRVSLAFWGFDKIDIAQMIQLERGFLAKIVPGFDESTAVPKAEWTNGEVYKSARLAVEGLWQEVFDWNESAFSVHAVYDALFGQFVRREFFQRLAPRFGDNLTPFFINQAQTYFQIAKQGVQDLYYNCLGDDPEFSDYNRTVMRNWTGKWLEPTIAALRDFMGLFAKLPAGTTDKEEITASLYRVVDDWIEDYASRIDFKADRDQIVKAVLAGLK", "sequence (P11987 2-170, chain 3 of 3, further chain)": "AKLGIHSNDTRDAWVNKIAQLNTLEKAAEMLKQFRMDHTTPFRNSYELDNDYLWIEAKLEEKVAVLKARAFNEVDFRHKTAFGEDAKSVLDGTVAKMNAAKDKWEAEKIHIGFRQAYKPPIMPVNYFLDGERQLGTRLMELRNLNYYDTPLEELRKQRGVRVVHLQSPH", "experiment": "fluorescence anisotropy"}, "[2]": {"biological_target": "MMOH (Methylococcus capsulatus) (UniProt P22869)", "experiment": "fluorescence anisotropy", "remark": "listed apart in the source"}}, "note": "Read-outs that look alike come from different tables or passages of the source."}
{"substance": "MMOB (from UniProt P18797)", "values": [{"measurement": "Kd", "setting": "[1]", "result": 550, "unit": "nM"}, {"measurement": "Kd", "setting": "[2]", "result": 170, "unit": "nM"}]}
